Source: article PMC4605301, “hSSB1 (NABP2/ OBFC2B) is required for the repair of 8-oxo-guanine by the hOGG1-mediated base excision repair pathway” (Nucleic Acids Research, 2015)

Tests used:
hOGG1 F319A = biological target: T1, hOGG1 F319A (human, UniProt O15527 1-345, F319A); test: pull-down; biotinylated dsDNA with an 8oxoG lesion on Dynabeads M-280 Streptavidin; 2 μg each of hSSB1 and hOGG1 F319A pre-incubated in buffer K with 75 mM KCl at 4°C, then 2 h with beads at 4°C, wash with 100 mM KCl; SDS-PAGE, Coomassie blue; conditions: both partners purified
T1 construct: human 8-oxoguanine glycosylase 1 (hOGG1) with F319A, from the pGEX-hOGG1 vector; Mutant defective for 8-oxoG recognition; also called hOGG1 mutant (F319A)
T1 sequence (O15527 whole entry F319A): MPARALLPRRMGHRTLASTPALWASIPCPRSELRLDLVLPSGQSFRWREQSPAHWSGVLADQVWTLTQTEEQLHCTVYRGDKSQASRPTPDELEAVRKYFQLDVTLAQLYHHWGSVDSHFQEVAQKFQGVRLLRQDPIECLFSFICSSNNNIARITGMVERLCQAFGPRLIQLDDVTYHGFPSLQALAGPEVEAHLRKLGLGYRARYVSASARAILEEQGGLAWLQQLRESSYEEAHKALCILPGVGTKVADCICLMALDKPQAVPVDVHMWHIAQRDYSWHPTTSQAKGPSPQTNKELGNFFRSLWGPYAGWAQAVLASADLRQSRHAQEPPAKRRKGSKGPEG

GST-hOGG1 wild type = GST-hOGG1 wild type (human, UniProt O15527 1-345); test: cell-based or functional assay
GST-hOGG1 wild type, sequence (O15527 whole entry): as the sequence (O15527 whole entry F319A) above, with A319F counted along it

binding result (hOGG1 F319A): binds | 8-oxoG incision activity of 20 nM recombinant hOGG1 on a 22 bp dsDNA with 8-oxoG opposite cytosine, with increasing concentrations of hSSB1 (37°C, 30 min) (GST-hOGG1 wild type): 12 fold
B1: recombinant hSSB1 full length, N-terminal (His)6-tag (natural protein, human, UniProt Q9BQ15 1-211, looked up)
chain: MTTETFVKDIKPGLKNLNLIFIVLETGRVTKTKDGHEVRTCKVADKTGSINISVWDDVGNLIQPGDIIRLTKGYASVFKGCLTLYTGRGGDLQKIGEFCMVYSEVPNFSEPNPEYSTQQAPNKAVQNDSNPSASQPTTGPSAASPASENQNGNGLSAPPGPGGGPHPPHTPSHPPSTRITRSQPNHTPAGPPGPSSNPVSNGKETRRSSKR
notes: also called hSSB1 Full length (FL); purified recombinant hSSB1; source: E. coli T7 shuffle strain, purified (Superdex 200)
